The source of these data is US7303752B2, “Hookworm vaccine” (The George Washington University, priority 2001, dated 2007).

The chains are these.
B1: Ay-ASP-2: A. ceylanicum secreted protein 2, SEQ ID NO: 58; Pichia pastoris expressed (protein, listed as Ancylostoma ceylanicum)
chain: VLVPLLVLLAVSVDANSVRCGNNGMTDEARQKFLDMHNGYRSQVAKGQAKDALSGNAPKAAKMKKMVYDCGVESTAMQNAKKCVFTHSHMKGLGENIWMTTAREMDKVKSAEQASQGWFSELAEYGVGPENKLTMQLWNRPNTQIGHYTQMVWQDTYKLGCYVEWCSSMTYGVCQYSPQGNMMNSIIYEKGNPCTQDSDCGSNARCTADKALCIVHG
B2: Ay-ASP-1: A. ceylanicum secreted protein 1, SEQ ID NO: 56; Pichia pastoris expressed (protein, listed as Ancylostoma ceylanicum)
chain: FSPVVVISVVLTVAFCDASPVKASFGCSNSGITDSDRQAFLDFHNNARRRVAQGVEDNKSGKLNPAKNMYKLDWDCEMEQKLQDAIQSCPGGFAGIQGVAQNIISWSGSGGFPNPSEKINSTLASWWGGAKNNGVASDNKYTGGGLYAFSNMVFSETTKLGCAYKVCGTKLTLSCYNGIGYMTGAPMWETGQACKAGADCTTFKNSGCEDGLCTKGADVPETNQQCPSNTGMTDSVRDTFLSLHNEFRSSVARGLEPDALGGNAPKASKMLKMVYDCEVEASAIRHGNKCVYQHSHGDERPGLGENIYKTSIVKFEKNKAAKQASQLWWNELKEFGVGPSNMLTDAWNRPNMQIGHYTQMAWESTYKLGCAVIFCNDFTFGVCQYGPGGNYMNHLIYTIGQPCSECEATATCSVTEGLCSAP
B3: Ay-MTP-1: A. ceylanicum astacin protease antigen, SEQ ID NO: 60 (protein, listed as Ancylostoma ceylanicum)
chain: MRVFLLVLLLAICASAGFFDTKLGEKIKKTLGKIKAALNGTLLMKIREKFIALREKIKAKLKLSPARKALLGEIMKHIIKIKKDKIQEKGDSIEEINSKSAIGELLYQGDIVLTNKQAQEIVDIEGDENDRGKRQAFRDRNYPRTLWSKGVYYYFHGNATPEVRSVFTKGARLWMKDTCIDFFESNSAPDRIRVFKEQGCWSYVGRIGGQQDLSLGKGCESVGTAAHEIGHAIGFYHTHSRHDRDNFITFNAQNVKPDWLDQFTKQTPATNENYGITYDYGSIMHYGANSASANGQPSMVPFDPKYVETLGSPIISFYELLMINKPYECTKNCDPNTSAQCKMGGFPHPRDCGRCICPSGYGGQLCDQKPSGCGSILQATAQYQNLHDKRGNEAAGQRPREDMDFCYYWITAPQGSRIEIKIADLSRGAAVDGCQYWGVEIKTHADQRLTGYRFCAPEDVGRTLVSNSNIVPIITYNFYATTVDIQYRIVGGNVGGPRPQPQPNSNCVDNEQCATLIRTKNFCQSRSFTESVKRGLCPKACGFCR

For the first experiment, the system named is A. ceylanicum. Put plainly: Hamster vaccine trial Ham V-IV with Quil A, oral challenge with 100 A. ceylanicum L3. To be noted: 10 hamsters per group; Quil A control 48.9. Format: in vivo, Syrian hamster. On the procedure: Brief Outline of Study Sections: Purpose bred Syrian hamsters are randomized into eight groups. Seven groups will receive candidate vaccines: ASP-1, ASP-2, MTP, and Irradiated larvae. One group receives only the adjuvant (Quil A) as experimental control. Each animal's specific antibody response is evaluated by direct ELISA using serum taken prior to the infective challenge. […] Quantitative ova counts, used to evaluate worm burden, are made from fecal samples collected twice after larval challenge. Also, hemoglobin levels will be tested to detect anemia caused by the blood loss during adult hookworm infection. The final report will evaluate the data and provide conclusions regarding each vaccine's effectiveness both in terms of worm burden and blood loss.
Test and Control Identification: The antigens are ASP-1, ASP-2, and MTP. The antigen-adjuvant combinations will be ASP-1+Quil A, ASP-2+Quil A, MTP+Quil A, ASP-1+ASP-2+Quil A, ASP-2+MTP+Quil A and ASP-1+MTP+Quil A. One group, which receives irradiated L3 serve as the positive control. The negative control group will receive only Quil A. Details about the antigen and the adjuvants will be included in the study records when they become available.
The test articles are diluted to provide a dose of 0.025 mg of antigen in 200 ul of antigen-adjuvant mixture per animal per injection. All injections will be performed intramuscularly (i.m). The prescribed volume dose information is recorded by Dr. Ghosh. Fresh preparation of antigens will be made the day of injection.
Administration of Test and Control Articles: The vaccines and adjuvant are administered intramuscularly (IM) three (3) times beginning when the hamsters are 28±2 days old. The vaccines are boosted at 21 days (3 weeks) intervals.
Challenge Infection: Ancylostoma ceylanicum larvae are cultured from the eggs collected in the feces of infected hamsters by qualified technicians in the Dr. Hotez lab. All hookworms in the infective challenge are approximately equal age (10±5 days). The species identity of the infective larva dose is validated, using PCR DNA amplification and specific oligonucleotide primers. All hamsters are infected by orally with the same dose of 100+/−10 3rd stage larvae of A. celyanicumfs. Larval challenge occurs on the same day for all hamsters (at age 82±2 days). Clinical Observations: The hamsters are observed daily and are weighed at least every 7 days post-challenge. Hamsters that develop signs of moderate to severe anemia, or develop a loss of body weight greater than 15% are observed more frequently. Prior to larvae infection and at least one time every 7-10 days, blood samples are collected from all hamsters. Blood withdrawal should be approximately equal in amount from all hamsters and at this time, the stool will be checked for blood.
A pre-vaccination blood sample will be examined for Hemoglobin; a sample of serum will be frozen. A hemoglobin test is performed 6-10 days and 12-18 days post-challenge. Samples of serum will be collected from each hamster; pre-immune, after 2 boosts, and after larval challenge. These samples will be labeled with unique identifiers (nature of the specimen, study-hamster number and collection date) and frozen for possible future analysis.
Quantitative Egg Counts (QEC): One week following parasite dosing, fecal examination for ova begins and will be repeated once a week until the study is terminated. The ova count method will be performed according to the SOP, which is a modification of the McMaster technique (Veterinary Clinical Pathology, 6th ed., 1994, page 9-10). The test will be performed the same way each time in order to quantitate the ova count. Fecal specimens from the hamsters will be identified by the hamster study number and the unique hamster identification number. The ova are counted in a McMaster chamber under a binocular microscope and recorded. […]
Consider B1, for which the “Adult Hookworms, Mean” value is 33.2.
B2: the “Adult Hookworms, Mean” value amounted to 30.9.
On the same count and under the same terms, as for B3, the figure is 35.3.

The same experiment, now with this note: Quil A control 0.45.
B1: the “Spleen weights, Median” value was 0.47 gr.
For B2, the “Spleen weights, Median” value was 0.48 (0.48) ± 0.10 gr.
Take B3: the “Spleen weights, Median” value is given as 0.45 gr.

Still in this experiment, the particulars now being: Quil A control 0.47.
As to B1, the “Spleen weights, Mean” value is on record as 0.44 gr.
On to B2, for which the “Spleen weights, Mean” value was 0.48 (0.48) ± 0.10 gr.
As to B3, the “Spleen weights, Mean” value was determined as 0.42 gr.

Staying with this experiment, now noted: Quil A control 53.0.
B1: the “Adult Hookworms, Median” value is 39.5.
The same measure, in the same setting: as for B2, the figure is 36.0; as for B3, 40.0.

The experiment is the same for the next values; noted with them: hamster, in vivo.
As for B1, the “Percent reduction (EPG) relative to Quil A” value stood at 47.2%, the “Percentage Hb Increase Relative to control (QuilA)” value amounted to 55.2% and the “Percentage Reduction (adult hookworms) Relative to Quil A” value stood at 32.1%.
Turning to B2, the “Percent reduction (EPG) relative to Quil A” value turned out to be 59.0%, the “Percentage Hb Increase Relative to control (QuilA)” value came to 32.7% and the “Percentage Reduction (adult hookworms) Relative to Quil A” value is 36.8%.
Consider B3, for which the “Percent reduction (EPG) relative to Quil A” value turned out to be 42.7%, the “Percentage Hb Increase Relative to control (QuilA)” value was 59.9% and the “Percentage Reduction (adult hookworms) Relative to Quil A” value is reported as 27.8%.

Staying with this experiment, now noted: hookworm eggs per gram, two cages per group.
For the molecule B1, the “EPG Mean ± SD” value was determined as 1175.0 ± 176.7.
Still for that read-out and setting: the result for B2 reads 912.5 ± 17.7.
For the molecule B3, the “EPG Mean ± SD” value is recorded as 1275.0 ± 777.8.

Still in this experiment, the particulars now being: necropsy relative to time of infection; Quil A control 7.8.
As for B1, the “Body Weight % Reduction, Median” value is recorded as 4.9%.
Turning to B2, the “Body Weight % Reduction, Median” value was 4.4%.
Still for that read-out and setting: the result for B3 reads 5.4%.

Still in this experiment, the particulars now being: necropsy relative to time of infection; Quil A control 7.9.
Consider B1, for which the “Body Weight % Reduction, Mean” value amounted to 4.2%.
Still for that read-out and setting: as for B2, the figure is 3.4%; as for B3, 4.0%.

The experiment is the same for the next values; noted with them: necropsy relative to time of infection; minus = decrease; Quil A −29.7.
Regarding B1, the “Hb % change, Mean” value was −9.2%.
On to B2, for which the “Hb % change, Mean” value is −13.3%.
As to B3, the “Hb % change, Mean” value is listed as −3.5%.

Staying with this experiment, now noted: necropsy relative to time of infection; minus = decrease; Quil A −32.5.
Regarding B1, the “Hb % change, Median” value was −13.3%.
The same measure, in the same setting: as for B2, the figure is −20.0%; as for B3, −11.9%.
